From US20140179593A1 (published 2014) come the findings set out here.

*: point of attachment. For = O=C*

Experiment [1] concerns the target T1, hDcn1^P (residues 62 to the C-terminal residue 259 of hDcn1, aka SCCRO or DCUN1D1) (Homo sapiens, UniProt Q96GG9 62-259).
T1 construct: Expressed as a GST fusion in E. coli; GST released by TEV protease; also called DCUN1D1^P; PONY domain of hDcn1
Kind of experiment: ITC; against Acetyl-hUbc12^1-26. The protocol:
(§1) The formylated peptides lack the methyl portion of an acetyl, but retain the amide and are uncharged.
(§2) Protein samples were buffer matched by desalting over a NAP-5 column (GE Healthcare) into 50 mM Hepes, 125 mM NaCl, 1 mM BME, pH 7.0 (ITC buffer). Peptides were dissolved by weight to a final concentration of 10 mM in ITC buffer and diluted further in ITC buffer as required for the experiments. […] The peptide ligands (4 mM) were constantly injected (1.5 μl). The interval time between each injection was 3 minutes and the duration of each injection was 3 seconds. […] Peptide ligands (250 μM) were constantly injected (2.5 μl). The interval time between each injection was three minutes and the duration of each injection was 5 seconds. […] The interval time between each injection was 3 minutes and the duration of each injection was 5 seconds. Obtained spectra were evaluated using Origin (V 7.0) to determine heats of binding and Kd values.

The target of experiment [2] is T2, hDcn1^P (PONY domain of human Dcn1 / DCUN1D1 / SCCRO, residues 62 to 259) (Homo sapiens, UniProt Q96GG9 62-259).
T2 construct: NEDD8 co-E3; Expressed as a GST fusion in E. coli; GST was removed with TEV protease; also called DCUN1D1^P
T2 sequence (Q96GG9 62-259): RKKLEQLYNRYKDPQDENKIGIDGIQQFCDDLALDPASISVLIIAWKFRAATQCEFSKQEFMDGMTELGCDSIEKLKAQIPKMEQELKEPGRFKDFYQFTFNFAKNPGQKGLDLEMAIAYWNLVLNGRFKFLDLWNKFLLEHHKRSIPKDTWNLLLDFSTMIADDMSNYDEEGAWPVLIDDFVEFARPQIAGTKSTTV
Briefly: ITC, peptide titrated into hDcn1^P. The protocol:
as §1, §2
In general terms: In ITC the heat of successive injections is recorded.

Experiment [3] addresses T3, yDcn1^P (potentiating neddylation (PONY) domain of S. cerevisiae Dcn1) (Saccharomyces cerevisiae, UniProt Q12395 70-269).
T3 construct: NEDD8 co-E3; Expressed in E. coli
T3 sequence: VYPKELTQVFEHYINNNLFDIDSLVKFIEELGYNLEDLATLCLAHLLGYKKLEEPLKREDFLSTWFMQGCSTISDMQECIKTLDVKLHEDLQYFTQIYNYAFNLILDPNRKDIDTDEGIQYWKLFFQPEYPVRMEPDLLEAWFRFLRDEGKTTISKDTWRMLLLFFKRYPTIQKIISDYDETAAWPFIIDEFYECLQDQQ
Briefly: ITC; against Acetyl-yUbc12^1-24. The protocol: as §2

In experiment [4] the target is T4, yDcn1^P (potentiating neddylation / PONY domain of Saccharomyces cerevisiae Dcn1) (Saccharomyces cerevisiae, UniProt Q12395 70-269).
T4 construct: NEDD8 co-E3; Expressed in E. coli
T4 sequence: T3 sequence
Kind of experiment: ITC, peptide titrated into yDcn1^P. The protocol:
as §1, §2

The target in experiment [5] is T1, hDcn1^P (residues 62 to the C-terminal …). Briefly: ITC, peptide titrated into Dcn1^P; against the unacetylated peptide. The protocol: (§3) To gain insights into mechanistic roles of Ubc12 N-terminal acetylation, isothermal titration calorimetry (ITC) was used to quantify interactions with peptides corresponding to the N-termini of yeast or human Ubc12.
as §2

Experiment [6] has the same target. Kind of experiment: crystal structure. The protocol:
The crystals grew as multiple clusters. Single crystals of the complex were obtained by streak-seeding into 17% PEG1500, 0.1 M MIB pH 4.0. The crystals were soaked in step gradients for 1-5 minutes, with sequential soaks containing well solution supplemented with 10%, 20%, and 30% ethylene glycol prior to flash-freezing in liquid nitrogen. Reflection data were collected at beamline 8.2.2 at the Advanced Light Source.

Experiment [7] addresses T3, yDcn1^P (potentiating neddylation …). Kind of experiment: ITC, peptide titrated into Dcn1^P; against the unacetylated peptide. The protocol:
as §3, §2

The target of experiment [8] is T5, hDcn4^P (PONY domain of human DCUN1D4) (Homo sapiens, UniProt Q92564 102-292).
T5 sequence: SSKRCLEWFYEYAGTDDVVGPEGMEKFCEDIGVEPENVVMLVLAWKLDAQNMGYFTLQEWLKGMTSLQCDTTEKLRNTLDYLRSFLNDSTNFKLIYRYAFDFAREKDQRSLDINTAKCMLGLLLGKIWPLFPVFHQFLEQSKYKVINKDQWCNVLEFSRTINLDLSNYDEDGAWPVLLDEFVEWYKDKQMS
Briefly: ITC, two values in the cell, first value. The protocol:
as §2

Experiment [9] addresses T5, hDcn4^P (PONY domain of human DCUN1D4). Kind of experiment: ITC, two values in the cell, second value. The protocol:
as §2

The target of experiment [10] is T6, hDcn1^P (potentiating neddylation / PONY domain of human Dcn1, DCUN1D1) (Homo sapiens, UniProt Q96GG9 62-259).
T6 construct: also called DCUN1D1^P; SCCRO PONY domain
T6 sequence (Q96GG9 62-259): as the sequence (Q96GG9 62-259) above
Kind of experiment: ITC, peptide titrated into Dcn PONY domain.

Experiment [11] deals with hDcn2^P (PONY domain of human DCUN1D2) (Homo sapiens, UniProt Q6PH85 62-259). Briefly: ITC, peptide titrated into Dcn PONY domain.
hDcn2^P (PONY domain of human DCUN1D2), sequence (Q6PH85 62-259 limits assumed): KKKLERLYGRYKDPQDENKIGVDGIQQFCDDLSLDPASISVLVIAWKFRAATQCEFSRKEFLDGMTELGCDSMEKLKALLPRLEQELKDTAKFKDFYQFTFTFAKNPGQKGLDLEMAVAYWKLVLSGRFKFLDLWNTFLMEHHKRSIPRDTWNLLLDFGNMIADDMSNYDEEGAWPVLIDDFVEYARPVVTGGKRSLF
The target of experiment [12] is T7, hDcn3^P (PONY domain of human DCUN1D3) (Homo sapiens, UniProt Q8IWE4 86-304).
T7 sequence: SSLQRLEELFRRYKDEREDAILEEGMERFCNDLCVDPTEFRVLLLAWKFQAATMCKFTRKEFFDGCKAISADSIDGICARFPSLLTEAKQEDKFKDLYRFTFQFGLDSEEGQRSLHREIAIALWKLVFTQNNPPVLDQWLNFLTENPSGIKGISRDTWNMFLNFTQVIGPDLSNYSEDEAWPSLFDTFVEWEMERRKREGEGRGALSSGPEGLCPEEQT
Briefly: ITC, peptide titrated into Dcn PONY domain.

For experiment [13], the target named is T8, hDcn5^P (PONY domain of human DCUN1D5) (Homo sapiens, UniProt Q9BTE7 47-237).
T8 sequence: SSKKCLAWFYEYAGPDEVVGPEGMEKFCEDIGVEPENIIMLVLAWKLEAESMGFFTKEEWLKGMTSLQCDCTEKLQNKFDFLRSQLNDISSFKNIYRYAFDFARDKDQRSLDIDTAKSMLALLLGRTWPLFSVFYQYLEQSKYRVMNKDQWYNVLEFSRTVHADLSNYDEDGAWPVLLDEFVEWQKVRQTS
Kind of experiment: ITC, peptide titrated into Dcn PONY domain.

T1 sequence (Q96GG9 62-259): as the sequence (Q96GG9 62-259) above

B1: Formyl-hUbc12^1-26 (peptide)
peptide: For-MIKLFSLKQQKKEEESAGGTKGSSKK-NH2
SMILES: CC[C@H](C)[C@H](NC(=O)[C@H](CCSC)NC=O)C(=O)N[C@@H](CCCCN)C(=O)N[C@@H](CC(C)C)C(=O)N[C@@H](Cc1ccccc1)C(=O)N[C@@H](CO)C(=O)N[C@@H](CC(C)C)C(=O)N[C@@H](CCCCN)C(=O)N[C@@H](CCC(N)=O)C(=O)N[C@@H](CCC(N)=O)C(=O)N[C@@H](CCCCN)C(=O)N[C@@H](CCCCN)C(=O)N[C@@H](CCC(=O)O)C(=O)N[C@@H](CCC(=O)O)C(=O)N[C@@H](CCC(=O)O)C(=O)N[C@@H](CO)C(=O)N[C@@H](C)C(=O)NCC(=O)NCC(=O)N[C@H](C(=O)N[C@@H](CCCCN)C(=O)NCC(=O)N[C@@H](CO)C(=O)N[C@@H](CO)C(=O)N[C@@H](CCCCN)C(=O)N[C@@H](CCCCN)C(N)=O)[C@@H](C)O
notes: Synthetic peptide; also called N-terminally formylated human Ubc12 peptide; hUbc12^Formyl-1-26
Consider B1, for which the “fold change of Kd against the acetylated peptide” value in experiment [1] was about 9 fold.

B2: Formyl-hUbc12^1-26 peptide (peptide)
peptide: For-MIKLFSLKQQKKEEESAGGTKGSSKK-NH2
SMILES: CC[C@H](C)[C@H](NC(=O)[C@H](CCSC)NC=O)C(=O)N[C@@H](CCCCN)C(=O)N[C@@H](CC(C)C)C(=O)N[C@@H](Cc1ccccc1)C(=O)N[C@@H](CO)C(=O)N[C@@H](CC(C)C)C(=O)N[C@@H](CCCCN)C(=O)N[C@@H](CCC(N)=O)C(=O)N[C@@H](CCC(N)=O)C(=O)N[C@@H](CCCCN)C(=O)N[C@@H](CCCCN)C(=O)N[C@@H](CCC(=O)O)C(=O)N[C@@H](CCC(=O)O)C(=O)N[C@@H](CCC(=O)O)C(=O)N[C@@H](CO)C(=O)N[C@@H](C)C(=O)NCC(=O)NCC(=O)N[C@H](C(=O)N[C@@H](CCCCN)C(=O)NCC(=O)N[C@@H](CO)C(=O)N[C@@H](CO)C(=O)N[C@@H](CCCCN)C(=O)N[C@@H](CCCCN)C(N)=O)[C@@H](C)O
notes: Synthetic peptide; also called hUbc12^Formyl-1-26
The term Kd denotes the free concentration of one partner at which half of the binding sites on the other are occupied at equilibrium, for simple one-to-one binding. B2: in [2], the Kd was 9710 nM, the ΔH was -4.89 kcal/mol and the ΔS is 5.79 cal/mol/deg.

B3: Formyl-yUbc12^1-24 (peptide)
peptide: For-MLKLRQLQKKKQKENENSSSIQPN-NH2
SMILES: CC[C@H](C)[C@H](NC(=O)[C@H](CO)NC(=O)[C@H](CO)NC(=O)[C@H](CO)NC(=O)[C@H](CC(N)=O)NC(=O)[C@H](CCC(=O)O)NC(=O)[C@H](CC(N)=O)NC(=O)[C@H](CCC(=O)O)NC(=O)[C@H](CCCCN)NC(=O)[C@H](CCC(N)=O)NC(=O)[C@H](CCCCN)NC(=O)[C@H](CCCCN)NC(=O)[C@H](CCCCN)NC(=O)[C@H](CCC(N)=O)NC(=O)[C@H](CC(C)C)NC(=O)[C@H](CCC(N)=O)NC(=O)[C@H](CCCNC(=N)N)NC(=O)[C@H](CC(C)C)NC(=O)[C@H](CCCCN)NC(=O)[C@H](CC(C)C)NC(=O)[C@H](CCSC)NC=O)C(=O)N[C@@H](CCC(N)=O)C(=O)N1CCC[C@H]1C(=O)N[C@@H](CC(N)=O)C(N)=O
notes: Synthetic peptide; also called N-terminally formylated yeast Ubc12 peptide
In the case of B3, the “fold change of Kd against the acetylated peptide” value in [3] was about 17 fold.

B4: Formyl-yUbc12^1-24 peptide (peptide)
peptide: For-MLKLRQLQKKKQKENENSSSIQPN-NH2
SMILES: CC[C@H](C)[C@H](NC(=O)[C@H](CO)NC(=O)[C@H](CO)NC(=O)[C@H](CO)NC(=O)[C@H](CC(N)=O)NC(=O)[C@H](CCC(=O)O)NC(=O)[C@H](CC(N)=O)NC(=O)[C@H](CCC(=O)O)NC(=O)[C@H](CCCCN)NC(=O)[C@H](CCC(N)=O)NC(=O)[C@H](CCCCN)NC(=O)[C@H](CCCCN)NC(=O)[C@H](CCCCN)NC(=O)[C@H](CCC(N)=O)NC(=O)[C@H](CC(C)C)NC(=O)[C@H](CCC(N)=O)NC(=O)[C@H](CCCNC(=N)N)NC(=O)[C@H](CC(C)C)NC(=O)[C@H](CCCCN)NC(=O)[C@H](CC(C)C)NC(=O)[C@H](CCSC)NC=O)C(=O)N[C@@H](CCC(N)=O)C(=O)N1CCC[C@H]1C(=O)N[C@@H](CC(N)=O)C(N)=O
notes: Synthetic peptide
As to B4, in experiment [4], the Kd was 7460 nM, the ΔH was found to be 2.82 kcal/mol and the ΔS is 33.4 cal/mol/deg.

B5: Acetyl-hUbc12^1-26 (peptide)
peptide: Ac-MIKLFSLKQQKKEEESAGGTKGSSKK-NH2
notes: Synthetic peptide; also called hUbc12Ac1-26
In the case of B5, the “increase in affinity by N-terminal acetylation” value in experiment [5] was about 100 fold.

B6: Acetyl-hUbc12^1-15 (peptide)
peptide: Ac-MIKLFSLKQQKKEEE-NH2
notes: Peptide of the hCul1^WHB-hDcn1^P-Acetyl-hUbc12^1-15 crystal structure; also called N-terminally acetylated human Ubc12^1-15
Consider B6, for which the binding result in [6] is “binds”.

B7: Acetyl-yUbc12^1-24 (peptide)
peptide: Ac-MLKLRQLQKKKQKENENSSSIQPN-NH2
notes: Synthetic peptide; also called yUbc12Ac1-24; N-terminally acetylated S. cerevisiae Ubc12^1-24
On to B7, for which the “increase in affinity by N-terminal acetylation” value in experiment [7] was about 100 fold.

B8: yUbc12^Ac1-24 (peptide)
peptide: Ac-MLKLRQLQKKKQKENENSSSIQPN-NH2
notes: Synthetic peptide of the N-terminus of yeast Ubc12; also called Acetyl-yUbc12^1-24
In the case of B8, the Kd in [8] stood at 1200 nM; in experiment [9], 13000 nM; in [10], 311 nM; in experiment [11], 204 nM; in experiment [12], 3400 nM; in experiment [13], 2400 nM.
